From patent US20210002649

Biological target: PD-1 Ligand (PD-L1) (UniProt Q9NZQ7)
Sequence (Q9NZQ7 19-290): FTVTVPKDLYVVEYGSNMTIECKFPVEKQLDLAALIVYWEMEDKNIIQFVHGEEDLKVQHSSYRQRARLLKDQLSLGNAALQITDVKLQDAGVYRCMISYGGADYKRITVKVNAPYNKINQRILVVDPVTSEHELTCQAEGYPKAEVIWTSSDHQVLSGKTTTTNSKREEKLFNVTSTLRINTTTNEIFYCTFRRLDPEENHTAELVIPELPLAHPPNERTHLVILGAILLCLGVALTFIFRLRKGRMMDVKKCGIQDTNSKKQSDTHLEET

WW domain containing E3 ubiquitin protein ligase 1 (WWP1)
PD-L1 K63-linked poly-ubiquitination (gel images): WWP1 triggers PD-L1 K63-linked poly-ubiquitination
PD-L1 ubiquitination (gel images): WWP1 triggers PD-L1 ubiquitination in a catalytic dependent manner
